Target: T1, Human MRP14 (Homo sapiens, UniProt P06702 1-114, limits assumed)
T1 sequence: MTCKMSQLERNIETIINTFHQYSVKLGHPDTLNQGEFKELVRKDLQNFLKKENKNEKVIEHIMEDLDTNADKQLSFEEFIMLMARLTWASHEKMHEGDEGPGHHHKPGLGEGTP
Assay: statement within the sandwich ELISA example (Example 5)
Experimental: In order to determine the amount of MRP8/MRP14 polypeptide in various wound fluids, wound fluid samples from patients suffering from chronic diabetic wound were collected, venous ulcers as well as wound fluids from wounds of healthy persons. Wound fluids were isolated as described in Example 2 by means of drainage. For the determination of MRP8/MRP14 content, Maxi-Sorb Immunoplates (96-well, Nunc, Wiesbaden, Germany) were coated with polyclonal rabbit antisera against MRP14 by incubating each well overnight at 4° C. with 50 μl of coating solution (anti-MRP14 antibody, 2 μg/ml, in 0.1 M NaHCO3, pH 9.5). […] After removal of the blocking reagent, 50 μl of diluted wound fluid samples (buffer A: PBS containing 0.1% Tween 20) were added and allowed to react with the immobilized capture antibody for 1 h at 37° C. and then washed (3×) with buffer A. Bound antigen was detected by incubation (1 h, 37° C.) of each well with 50 μl of a biotinylated monoclonal antibody against MRP14 (clone S36.48, Dianova, 125 ng/ml antibody in buffer A). […] MRP8 and MRP14 spontaneously form noncovalently associated complexes to a quantitative extent which are detected by the ELISA system. […] The total polypeptide content per probe was determined using the BCA assay.

- binding result: binds
B1: Human MRP8 (other)
chain: MLTELEKALNSIIDVYHKYSLIKGNFHAVYRDDLKKLLETECPQYIRKKGADVWFKELDINTDGAVNFQEFLILVIKMGVAAHKKSHEESHKE
notes: Natural protein in human wound fluid and wound biopsy tissue (Western blot); also called calgranulin A

— US20030003482A1 (published 2003)
